Patent publication US20070275001A1, “Rational Design and Engineering of Proteins and Peptides for Immunomodulation” (Arizona Board of Regents, priority 2004, published 2007)
No end group written: not given here.

How the values were obtained:
[1] = corresponding value for the original scaffold protein; cited from earlier work
[2] = Chemical denaturation with guanidinium hydrochloride monitored by CD at 222 nm (thermodynamic stability); assay type: physicochemical
Experimental: The thermodynamic stability of the proteins was assessed by chemical denaturation studies, in which the CD signal at 222 nm was monitored at increasing concentrations of denaturant agent, guanidinium hydrochloride (FIG. 7B). A 1 cm path length rectangular quartz cell was used. The cell holder was temperature controlled at 25° C. The buffer was 10 mM potassium phosphate, pH 7.0. The bandwidth was 1.00 nm. At each GdnHCl concentration, cell chamber was equilibrated for 6 minutes, then data were collected. The curve is described by the equation: ΔGobs=ΔGH2O+m[GdnHCl] in which ΔGobs is the free energy for the two state unfolding equilibrium observed at a given concentration of GdnHCl, ΔGH2O is the free energy of denaturation extrapolated to zero GdnHCl concentration, m is a constant that provide a measure of the cooperativity of the process.
The resulting sigmoidal curve was analyzed to extrapolate the free energy of folding, ΔG, estimated to be −4.2 Kcal/mol; the corresponding ΔG for 1LQ7 is −4.6 Kcal/mol.

macrophages [3] = experiment: Quantification of phagocytosis of IgG-opsonized FITC latex beads by flow cytometry (in vitro macrophage activation test); assay type: cell-based; conditions: cells stimulated overnight, then 30' with FITC beads conjugated with IgG
Experimental: The present invention discloses a method for rapid, quantitative in vitro testing for macrophage activation. Phagocytosis is a cytoskeleton-dependent process of engulfment of large particles. Phagocytes use various surface receptors to bind and internalize the foreign particles for processing the pathogens in lysosomes (phagolysosomes) for presentation of antigens to the immune system. The effects of Gc-MAF with both positive and negative controls of phagocytosis are determined. As positive controls, macrophages are also stimulated with Beta-1,3 glucans, a well-known immune stimulator, for functional comparison. Specifically, curdlan, linear (1,3)-Beta-D-glucans are used. […] Once the cells are suspended in the culture medium, quantification of phagocytosis is accomplished by flow cytometry. One unique feature of flow cytometry is that it measures fluorescence per cell or particle. FIG. 8 illustrates the quantification of phagocytosis by flow cytometry. […] A FACSCalibur (FACS=Fluorescence Activated Cell Sorter) system (Becton Dickinson) equipped with an air-cooled argon ion laser (488 nm, 15 mW output) is used for this study. Forward light scatter (FSC) and 90° light scatter (SSC) were measured at 488 nm and fluorescence emissions (FL parameters) were collected using the FSC as the triggering signal. Fluorescence data was reported by CellQuest software (Becton Dickinson). […]

macrophages [4] = conditions: cited from earlier work

1LQ7: stable designed three-helix bundle scaffold from the Protein Data Bank, originally designed at the University of Pennsylvania (chain 1 GSRVKALEEKVKALEEKVKALGGGG; chain 2 RIEELKKKWEELKKKIEELGGGG; chain 3 EVKKVEEEVKKLEEEIKKL; not fully specified (N-terminus); also: helices are one chain joined by GGGG loops)
free energy of folding, ΔG (scaffold) [1]: -4.6 kcal/mol

MM1: 69 residue three-helix bundle peptide: scaffold 1LQ7 with both loops replaced by Gc-MAF Domain III loop; non-glycosylated analog, negative control (chain 1 Ac-GSRVKALEEKVKALEEKVKALGNAT; chain 2 PTELAKKKWEELKKKIEELGNATPT; chain 3 EVKKVEEEVKKLEEEIKKL-NH2; not fully specified (N-terminus); also: helices are one chain joined by the loops, non-glycosylated)
free energy of folding, ΔG ([2]; GdnHCl denaturation, 25° C., 10 mM potassium phosphate, pH 7.0, extrapolated to zero GdnHCl): -4.2 kcal/mol | free energy of folding relative to that of the original scaffold protein, 1LQ7 ([2]; difference from 1LQ7): ≤ 30% | aggregation state ([2]; helical content at room temperature and free energy of folding independent of concentration, corroborated by equilibrium sedimentation): monomeric

B1: Gc-MAF: serum glycoprotein macrophage activating factor, formed from Vitamin D Binding Protein by post-translation modifications (protein, UniProt P02774 17-474, looked up)
Vitamin D-binding protein: LERGRDYEKNKVCKEFSHLGKEDFTSLSLVLYSRKFPSGTFEQVSQLVKEVVSLTEACCAEGADPDCYDTRTSALSAKSCESNSPFPVHPGTAECCTKEGLERKLCMAALKHQPQEFPTYVEPTNDEICEAFRKDPKEYANQFMWEYSTNYGQAPLSLLVSYTKSYLSMVGSCCTSASPTVCFLKERLQLKHLSLLTTLSNRVCSQYAAYGEKKSRLSNLIKLAQKVPTADLEDVLPLAEDITNILSKCCESASEDCMAKELPEHTVKLCDNLSTKNSKFEDCCQEKTAMDVFVCTYFMPAAQLPELPDVELPTNKDVCDPGNTKVMDKYTFELSRRTHLPEVFLSKVLEPTLKSLGECCDVEDSTTCFNAKGPLLKKELSSFIDKGQELCADYSENTFTEYKKKLAERLKAKLPDATPTELAKLVNKHSDFASNCCSINSPPLYCDSEIDAELKNIL
modifications: deglycosylated macrophage activating form
mean fluorescence intensity (macrophages [3]; FL1 channel, non-stimulated control 543±149): 724±155 | percentage of cells positive to phagocytosis (M2) (macrophages [3]; non-stimulated control 43.6±10.3%): 57.5±6.6% | time to macrophage activation (macrophages [4]; enzymatically activated Gc-MAF given to Ehrlich ascite tumor-bearing mice): less than 6 hr | time to substantially increased initiation of antibody production (macrophages [4]; injection of Gc-MAF): ≤ 48 h
